Laboratory results: the supplement of paper PMC9170038

Test system: MS2 coat protein
Experiment: apparent KD of MS2 coat protein; designed switch direction (-1 OFF switch, 1 ON switch): -1; higher = weaker reporter binding
Procedure, shortened: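 The reported apparent KD is a per-design median over clusters, from curve fits of normalised cluster fluorescence. Protein titrations used SNAP-549-labelled MS2 coat protein, doubled from 0.7 or 1.5 nM to 3 µM, in Tris-HCl pH 7.5 buffer with KCl, MgCl2, BSA, DTT, tRNA and Tween-20, with no input, 200 uM small-molecule ligand, or an oligonucleotide input. The RNA switches were transcribed on Illumina chips by stalled E. coli RNA polymerase.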

[1] = Eterna round: R95, input ligand: FMN 200 uM
[2] = Eterna round: R95, input ligand: microRNA oligo, concentration not stated
[3] = Eterna round: R95, input ligand: none

Row | Sequence | apparent KD of MS2 coat protein [1] | apparent KD of MS2 coat protein [2] | apparent KD of MS2 coat protein [3] | apparent KD of MS2 coat protein (input ligand: FMN 200 uM) | apparent KD of MS2 coat protein (input ligand: none)
1 | ACAAGCUUAAAAGGUGAUAACAUGAGGAUCACCCAUGUUCGUCUUAUAAAGAUCCUAUGUCGAAAGACAUAGGAUCA [Sensor 3, v1 - 68] (puzzle: Sensor v3, turn-off variant 1) | 0.0188 µM | 0.0394 µM | 0.0209 µM | – | –
2 | ACAAGCUUGUAAUGAUAGAACAUGAGGAUCACCCAUGUAAAUGGAAGAACCAAUUAGAUAAGAUAAACUCGUCUUAU [JR_STOV1_Sub002] (Eterna round: R97, puzzle: Sensor, turn-off variant 1) | – | – | – | 0.0591 µM | 0.0695 µM
3 | ACAAGCUUUAGGCGUGUGAACAUGAGGAUCACCCAUGUAAAGUAGGUUAGGAGGUCUGUAAGGGAUGCUCGUCUUAU [JR_SWV3TOV1_Sub090] (puzzle: Sensor v3, turn-off variant 1) | 0.0894 µM | 0.0455 µM | 0.113 µM | – | –
4 | ACAAGCUUUAGGCGUGUGAACAUGAGGAUCACCCAUGUAUUUUUGGUUAGGAGUUCUGUAAGGGAUGCUCGUCUUAU [JR_SWV3TOV1_Sub091] (puzzle: Sensor v3, turn-off variant 1) | 0.0422 µM | 0.0551 µM | 0.0489 µM | – | –
5 | ACAAGCUUUGUUGGGUGGUACAUGAGGAUCACCCAUGUUGCGCUCGUCUUGUGGGCCCGGGCCCGCGGCCCGGGCCC [-41.5, -69.6, A 12%] (Eterna round: R97, puzzle: Sensor, turn-off variant 1) | – | – | – | 0.545 µM | 0.663 µM
6 | ACAAGCUUUUAGAUUCUUAACAUGAGGAUCACCCAUGUGCUCGUCUUAUUUUCCGGCGGGCCGCCGGAAAAGCUUGU (Eterna round: R97, puzzle: Sensor, turn-off variant 1) | – | – | – | 0.0925 µM | 0.0938 µM
7 | ACAAGCUUUUAGAUUUUCAACAUGAGGAUCACCCAUGUUCGUCUUAGGCGAGUGCGAGUGCGGUGUACUCGUAUUAG [JL TOV1 3.85 sellena mod] (Eterna round: R97, puzzle: Sensor, turn-off variant 1) | – | – | – | 0.0222 µM | 0.0219 µM
8 | ACAAGCUUUUUGUUCGUCUUAUAAUAAUAAAUAAAGAUAACAUGAGGAUCACCCAUGUAAAGAAGACGGCCUCAUGU [Sesor Array 20 - Jieux - Sensor v3, turn-off variant 2] (puzzle: Sensor v3, turn-off variant 2) | 0.785 µM | 0.233 µM | 1.12 µM | – | –
9 | ACAAGCUUUUUGUUCGUCUUAUACACUCCUAAUAAGAAAACAUGAGGAUCACCCAUGUAAGAAAUAAGAACUCAUGU [Sesor Array 1 - Jieux - Sensor v3, turn-off variant 2] (puzzle: Sensor v3, turn-off variant 2) | 0.225 µM | 0.303 µM | 0.213 µM | – | –
10 | ACAAGUUUUUAGAUUCUUAACAUGAGGAUCACCCAUGUGCUCGUCUUGUUUGUACUAUCACCGCCGGUGAUAGUACA (Eterna round: R97, puzzle: Sensor, turn-off variant 1) | – | – | – | 0.065 µM | 0.081 µM
11 | ACAAUGUCAGGAUAUGAACAGCGCGGUCACAAGGAUUGCUUUCAGAAGGGACAUGAGGAUCACCCAUGUCGAUA [Eternabot (L1) Solution 91] (Eterna round: R97, puzzle: Exclusion 4) | – | – | – | 0.023 µM | 0.02 µM
12 | ACAAUGUUAGGAUAUCUGACAACUAGCCUCGGCUAGUCGAAAGAGAAGGAACAUGAGGAUCACCCAUGUAGAUC [EX4 #71] (Eterna round: R97, puzzle: Exclusion 4) | – | – | – | 0.523 µM | 0.146 µM
